{"source": "patent US20240139347A1", "about": "“COMPLEX, VASCULAR CONTRAST AGENT, X-RAY CONTRAST AGENT, METHOD FOR PRODUCING COMPLEX, AND IMAGING METHOD FOR CAPTURING STRUCTURAL CHANGE IN VESSEL” (TOHOKU UNIVERSITY, priority 2021, published 2024)", "origin": "cited, not measured here", "molecules": {"B1": {"name": "lactoferrin: lactoferrin (MW: 80 kDa), protein used in the complex of Example 1 (protein, UniProt P02788 20-710, looked up)", "Lactotransferrin": "GRRRSVQWCAVSQPEATKCFQWQRNMRKVRGPPVSCIKRDSPIQCIQAIAENRADAVTLDGGFIYEAGLAPYKLRPVAAEVYGTERQPRTHYYAVAVVKKGGSFQLNELQGLKSCHTGLRRTAGWNVPIGTLRPFLNWTGPPEPIEAAVARFFSASCVPGADKGQFPNLCRLCAGTGENKCAFSSQEPYFSYSGAFKCLRDGAGDVAFIRESTVFEDLSDEAERDEYELLCPDNTRKPVDKFKDCHLARVPSHAVVARSVNGKEDAIWNLLRQAQEKFGKDKSPKFQLFGSPSGQKDLLFKDSAIGFSRVPPRIDSGLYLGSGYFTAIQNLRKSEEEVAARRARVVWCAVGEQELRKCNQWSGLSEGSVTCSSASTTEDCIALVLKGEADAMSLDGGYVYTAGKCGLVPVLAENYKSQQSSDPDPNCVDRPVEGYLAVAVVRRSDTSLTWNSVKGKKSCHTAVDRTAGWNIPMGLLFNQTGSCKFDEYFSQSCAPGSDPRSNLCALCIGDEQGENKCVPNSNERYYGYTGAFRCLAENAGDVAFVKDVTVLQNTDGNNNEAWAKDLKLADFALLCLDGKRKPVTEARSCHLAMAPNHAVVSRMDKVERLKQVLLHQQAKFGRNGSDCPDKFCLFQSETKNLLFNDNTECLARLHGKTTYEKYLGPQYVAGITNLKKCSTSPLLEACEFLRK"}}, "details": "Y. Nojima et al., Pharm. Res. 26 (2009)", "data": [{"molecule": "B1", "values": [{"measurement": "half-life in blood of lactoferrin alone", "value": "about 7.8 min"}]}]}
